According to patent publication US20060003399:

Key:
[1] = test system: Full length human WASP, TAP-tagged at the C-terminus (Myc-WASP-TAP)
[2] = test system: Full length human N-WASP, TAP-tagged at the C-terminus (Myc-N-WASP-TAP)

Q: How did the “actin polymerization at higher activator concentrations” value [1] turn out when GST-tev-Rac1 was run?
A: At higher concentrations, Nck1, Nck2 and Rac1 inhibited WASP- and N-WASP-stimulated actin polymerization

Q: What about the “actin polymerization at higher activator concentrations” value [2] of the same substance?
A: At higher concentrations, Nck1, Nck2 and Rac1 inhibited WASP- and N-WASP-stimulated actin polymerization
